Measured values as given in patent US20200239549A1 (KM BIOLOGICS, published 2020).

B1: antibody D48 scFv-hFc (Fc fusion, not shown: a dimerising Fc or GST)
scFv: EVQLVETGGGVVRPGRSLRLSCTTSGFSFSGSAMHWVRQAPGKGLEWVAVISHDGNIIQYHDSVKGRFTISRDNSKNVLLLQMNSLRVDDTAMYYCARDVWLLPATISYAFDFWGQGTMVTVSSASTGGGGSGGGGSGGGGSVIWMTQSPPSLSASIGDTVTITCRASQGISNSIAWYQRRPGKAPELLVYAAYRLQSGVPSRLSGSGSGAEYTLTIKNMQPEDFATYYCQQYYDNPLTFGGGTKVEIK
B2: antibody D48 human-guinea pig chimeric IgG2κ (antibody, V domains shown)
VH: EVQLVETGGGVVRPGRSLRLSCTTSGFSFSGSAMHWVRQAPGKGLEWVAVISHDGNIIQYHDSVKGRFTISRDNSKNVLLLQMNSLRVDDTAMYYCARDVWLLPATISYAFDFWGQGTMVTVSS
VL: VIWMTQSPPSLSASIGDTVTITCRASQGISNSIAWYQRRPGKAPELLVYAAYRLQSGVPSRLSGSGSGAEYTLTIKNMQPEDFATYYCQQYYDNPLTFGGGTKVEIK
B3: antibody D48 Fab (Fab, V domains shown, not shown: small tags and cut ends; a dimerising Fc or GST)
VH: B2 VH
VL: B2 VL
B4: antibody D48 human-murine chimeric IgG2a (antibody, V domains shown, not shown: a dimerising Fc or GST)
VH: B2 VH
VL: B2 VL

Target: envelope glycoprotein B (gB) of HSV-1 strain KOS (HSV-1 strain KOS, UniProt P06437 31-904)
Assay: cell-based or functional assay

Binder | 50% plaque number-reducing activity [nM]
B1 | 1
B2 | 0.94
B3 | 2.7
B4 | 1.9

Target: envelope glycoprotein B (gB) of HSV-2 strain MS (HSV-2 strain MS)
Assay: cell-based or functional assay

Binder | 50% plaque number-reducing activity [nM]
B1 | 0.12
B2 | 7.5
B3 | 4.4
B4 | 1.6

Target: recombinant gB (gB1-705-strep), ectodomain of wild type gB of HSV-2 strain 333 (HSV-2 strain 333, UniProt P06763 23-727)
Assay: not given

Binder | Kd [nM]
B2 | 0.76
